Results from article PMC11006394.

Assays:
[1] = biological target: Cno DIL domain (aa 613–1006) (Drosophila) (UniProt Q24279); test: SEC-MALS; Superdex 200, 0.5 ml/min; for the DIL domain: 100 ul at 5.0 mg/ml injected, 300 mM NaCl, 25 mM Tris-HCl pH 8.5, 1 mM MgCl2, 0.1% beta-mercaptoethanol, 0.2 g/l sodium azide; monomer and homodimer peaks; conditions for FHA-DIL-PDZ not given
[2] = biological target: Cno FHA-DIL-PDZ protein (aa 372–1110) (Drosophila) (UniProt Q24279); test: as above

| Substance | percent of injected protein eluted as homodimer [1] | stoichiometry N [1] | percent of injected protein eluted as homodimer [2] | stoichiometry N [2] |
| --- | --- | --- | --- | --- |
| Cno DIL domain (aa 613–1006) (from UniProt Q24279 613-1006) (domain or fragment) | 27% | 2 | – | – |
| Cno FHA-DIL-PDZ protein (aa 372–1110) (from UniProt Q24279 372-1110) (domain or fragment) | – | – | 7% | 2 |
